Measured values taken from the supplement of paper PMC9170038.

System: MS2 coat protein
Test: apparent KD of MS2 coat protein; higher = weaker reporter binding
Settings: Eterna round: R107
Method: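 RNA-MaP round R107: designed RNA switches with theophylline, tryptophan, arginine or FMN aptamers are transcribed on-chip within common flanks. They are titrated with SNAP-549-labelled MS2 coat protein in RNA-MaP buffer (100 mM Tris pH 7.5, 80 mM KCl, 4 mM MgCl2), without ligand or with the indicated ligand. Median apparent KD per design.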

[1] = input ligand: theophylline 20 uM
[2] = input ligand: theophylline 2 mM
[3] = input ligand: tryptophan 2.4 mM

Sequence | apparent KD of MS2 coat protein (input ligand: arginine 13.2 mM) [nM] | apparent KD of MS2 coat protein (input ligand: none) [nM] | apparent KD of MS2 coat protein [1] [nM] | apparent KD of MS2 coat protein [2] [nM] | apparent KD of MS2 coat protein [3] [nM]
ACAUGAGGAUCACCCAUGUGAAGCAGGGUACGAGGACCGGUACGGCCGCCACUCGAGGAUUAUACCGAGUGAAUGGCAACGAUGU [whbob_Ex_trypto A_2s18] | 13.2 | 14.1 | 21.8 | 17.8 | 15.2
ACAUGAGGAUCACCCAUGUGCCGUCUUGAUACCAGACGCGAAGUAGUCCCUUGGCAGCAACUACGUGACGGUCGCGCAUGUGUAG [bcxmullin] | 17.8 | – | 21.4 | – | 16.1
ACAUGAGGAUCACCCAUGUGUGUAAAUCCUCGAGGACCGGUACGGCCGCCACUCGAACGAGUGUAAGUUGAAUGUAACAUUCAAC [SS Trp A v1] | 47.3 | – | 123 | 104 | –
ACAUGAGGAUCACCCAUGUGUGUAAGUCCUCGAGGACCGGUACGGCCGCCACUCGAACGAGUGUAACAUACUUGUUACAAGUAUG [SS Trp A s3] | 18.5 | – | 39.9 | 43.3 | –
ACAUGAGGAUCACCCAUGUUCAUGCGGGAAGGAGCGUGCGGAAGCACAGGUAGGUCGCCCUCAAUAUCUAACGUUACGUUCAUGA [#26 Same State - Arginine A] | 13.7 | 14.3 | 18.4 | 14.4 | 15.5
ACAUGAGGAUCACCCAUGUUCCUCGCCGAUACCAGUGAAGAAUUACGCCCUUGGCAGCGGAAUGAGUGUUUUGGAGAUGAGGUAC [6.aB] | 84.4 | – | 112 | – | 81
ACAUGAGGAUCACCCAUGUUGAGCACAGAAGGAGCGUGAUUAAGCACAGGUAGGUCGCUGUACUUAUCGAGCGUUAGCUCGAUAC [JR_Nu_SSArginiA_Sub030] | 21 | 22.3 | 32.6 | 28.3 | 22.8
ACAUGAGGAUCACCCAUGUUUGUUGUUCCUCGAGGACCGGUACGGCCGCCACUCGAACGAGUGGCACGCGAGUGCGCACUCGCGU [aPa] | 13.9 | – | 19.6 | 13.1 | 13
ACAUGUCUUAUAGAUACCAGACAGGACAUGAGGAUCACCCAUGUAAUGUAUACAUGCAGAGUCCCUUGGCAGCUAAGGUCAUAGA [#26 Same State - Theophylline B] | 54.6 | – | 110 | – | 92.8
ACAUUAGUUGGCGAUACCAGCUAUAGGCCUUCUGGGCGACAUGAGGAUCACCCAUGUGAUGGCCCUUGGCAGCGCUGAUUGAUGU [SSTheo B #29] | 65.6 | – | 167 | – | 182
ACAUUGCGCACGGCCGCCACUGGCUAUAGAUUUAUAGCAUUAAUGAACAUGAGGAUCACCCAUGUCAGGACCGGGUGCGAACCAU [SSTryp B #9] | 14 | – | 22.7 | 27.6 | –
ACCAGCACACAUGAUACCAGCGACAUGAGGAUCACCCAUGUACGGCGUGUAUCGAAAGGUUGCCCUUGGCAGCAUGAUAGUGCUA [Ratiarla] | 14.5 | – | 28.2 | – | 12.8
ACCGCAUCCGUAUAGGAUGCGGGCCAUGAAGGAGCGUGGGAAACCACAGGUAGGUCGCAUGGGUUACAUGAGGAUCACCCAUGUG [Jaws] | 26.4 | 166 | 517 | 585 | 534
ACCUAAGCCACAGAUACCAGAGUAAUAGGCCAAUUUCAAAACAUGAGGAUCACCCAUGUACUCCCUUGGCAGCUGCGAAUCGAAA [theeternabot_exclusion_MS2_Theo_B_30] | 11.1 | – | 13.6 | – | 10.3
ACCUGUACGAAAAGUGCAGGACAUGGAAAUCGAGGACCGGUACGGCCGCCACUCGUAUAAAACAAGUGGAUCACCCUUGUCCAUG [TrypAS 2 #AlternativeMS2 #Zipper #StaticStem] | 320 | 773 | 960 | 1500 | 1360
ACCUGUACGAAAAGUGCAGGACAUGGUAAACGAGGACCGGUACGGCCGCCACUCGAAUAACAAGUGGAUCACCCUUGUAACCAUG [TrypAS 5 #AlternativeMS2 #Zipper #StaticStem] | 39.6 | 223 | 573 | 3020 | 1090
ACGAAACAAGCGGCCGCCACUUCGUGGUGCUAAGGCUUGAUACUACAUGAGGAUCACCCAUGUCGAAGGACCGGGCUUGCGACUG [theeternabot_sameState_MS2_Trp_B_33] | 43.4 | – | 80 | 60 | –
ACGAACGAUAGUGAUACCAGACGUACAUGAGGAUCACCCAUGUUAUACACAUGGUUUAUUGUCCCUUGGCAGCACGUUAAGUUCG [JR_ExcTheophyB_Sub005] | 98.5 | – | 274 | – | 289
ACGAUAGGACAUGAGGAUCACCCAUGUGAUACCAGCCUGGAAACAGGCCCUUGGCAGCACAAAUACUCCAGAAACCUAUCGAAUA [TheoAX2 #MicroSwitchBubble] | 124 | – | 294 | – | 273

Sequence | apparent KD of MS2 coat protein (input ligand: arginine 13.2 mM) [nM] | apparent KD of MS2 coat protein (input ligand: none) [nM] | apparent KD of MS2 coat protein [1] [nM] | apparent KD of MS2 coat protein [2] [nM] | apparent KD of MS2 coat protein [3] [nM]
ACGCGUCAAGAGUAAAAUCCGUCAAGUGAUACCAGCCACAACGUAGGCCCUUGGCAGCACAUGAGGAUCACCCAUGUAAUAAGGA [Gedigerace] | 42.4 | 33.3 | 53.4 | 670 | 22.5
ACUACGAAGACGGCCGCCACUGAUAUUCGUAGAUCCAUCAAUACAUGAGGAUCACCCAUGUAUAUCAGGACCGGGUCAAGAUGGU [Tryp B Ex t6] | 23.3 | – | 39.2 | 28.2 | –
ACUAGAGGUGGAAGGAGCGGGAGACAUGAGCAUCACAUGAGGAUCACCCAUGUAGGAUCAUCCCAGGUAGGUCGCCAUGUCGAAA [h.hgmullin] | 88.4 | 363 | 290 | 218 | 173
ACUAGCGCACAUGAUACCAGCGACAUGAGGAUCACCCAUGUACGGCGUGUAUCGAAAGGUUGCCCUUGGCAGCAUGAUAGCGCUG [Cebiri] | 12.6 | – | 26.1 | – | 14.5
ACUCGGCAUCAUGAUACCAGAGAGCCCGAGAUGCCUUAACACAUGAGGAUCACCCAUGUACUCCCUUGGCAGCAUCAUGCACUAU [theeternabot_exclusion_MS2_Theo_B_31] | 16.6 | – | 29 | – | 22.7
ACUCGGUGUUUGUUGCUCCGAGUACGUGAUACCAGUUAAUUUUAUGGCCCUUGGCAGCAUGGGACAUGAGGAUCACCCAUGUUUA [#04 SameState-TheophyllineA] | 125 | – | 344 | – | 318
AGAAUAACACAUGAGGAUCACCCAUGUGAUACCAGCUAGGAAACUAGCCCUUGGCAGCACAUAAUCCUCAUGAGCUGCCAUAAUA [(M1)-(M2)-(T1)-(T2)-(M)'-(T)'_Design2_2/19/17] | 12 | – | 19.2 | – | 12.3
AGAAUAUAGUCGGCCGCCACUCUACAUACAUGAGGAUCACCCAUGUUUACAUAGUGGAAACACAUGAGGACCGGGACAUAGGCAU [#16 Same State - Tryptophan B] | 8.17 | 12.2 | 13.2 | 11 | 9.98
AGACAUGAGGAUCACCCAUGUAGUACGGAUACCAGAUCCAGAUGCAUCCCUUGGCAGCUGUGGUACAGCGUUACAUCGCUCGUAG [Exclusion - Theophylline A (Freestyle 22)] | 17 | – | 23.9 | – | 18.8
AGACAUGAGGAUCACCCAUGUAGUAUGGAUACCAGAUCCAGAUUUAUCCCUUGGCAGCUGUGGUACAGCGAUGGAUCGCUCCUAG [Exclusion - Theophylline A (Freestyle 11)] | 22.6 | – | 34 | – | 28
AGACAUGUAAGAUAAAUGACUUAUACAGAUACCAGACUAGUCAAUGUCCCUUGGCAGCUGCAUAACAUGAGGAUCACCCAUGUAA [JR_ExcTheophyA_Sub009] | 20.6 | – | 27.5 | – | 24.4
AGAGCAUUGACGGCCGCCACUCGUGUCACAUGAGGAUCACCCAUGUGACGGGUGAUCGCCCGGUUGAGGACCGGGUCAAUGCUCA [Omei Tryp SS B v8] | 10.4 | – | 13 | 11.2 | –
AGAGUCUAGUCGGCCGCCACUCAUGUCCAAAGGACAUGAGGAUCACCCAUGUACCAAUGGUACAUGAGGACCGGGACUGGACUCA [Omei Tryp B SS C v2] | 227 | – | 343 | 120 | –
AGAGUUAGACAAAAGUCUAGCUCACCAGAAGGAGCGUCCGAAAGGACAGGUAGGUCGCUGGUACAUGAGCAUCAGCCAUGUUCCU [ArgAS 15 #OpenEnded #AlternativeMS2] | 18.1 | 23.7 | 28 | 28.5 | 24.1
AGAGUUAGACAAAAGUCUAGCUCACCAGAAGGAGCGUCCGAAAGGACAGGUAGGUCGCUGGUGCAUGAGGAUCACCCAUGCUCCU [ArgAS 19 #OpenEnded #AlternativeMS2] | 66.6 | 204 | 171 | 243 | 211
AGAGUUAGACAAAAGUCUAGCUCACCAGAAGGAGCGUCCGAAAGGACAGGUAGGUCGCUGGUGCUUGAGGAUCACCCAAGUUCCU [ArgAS 22 #OpenEnded #AlternativeMS2] | 82.7 | 96.1 | 121 | 204 | 128
AGCAACUAGUCGGCCGCCACUCAUAUUACAUGAGGAUCACCCAUGUAUACAUGGUUGUUAUAUUUGAGGACCGGGACAGUUGCAU [JR_SSTryptoB_Sub018] | 59 | – | 69.9 | 75.7 | –
AGCACACAUCCUGAUACCAGAGACAUGAGGAUCACCCAUGUCCGAUCGUCCUGCCUCAGACUCCCUUGGCAGCAGGAUGUGUGCU [Exclusion Theophylline B GF7] | 12.5 | – | 18.6 | – | 13.4
